We go through one sequence from the Immune Epitope Database (IEDB).

Holding throughout (test): IEDB peptide-MHC binding, purified MHC/competitive/fluorescence; filed as Kd, often an IC50 or EC50 that approximates it; ≥ and ≤ were set here for values at or beyond the usual limits of such assays
Common to all, as to conditions: source organism: Entamoeba histolytica HM-1:IMSS

The target of assay [1] is HLA-B*57:01.
Assay [2] has as its target HLA-B*07:02.
Assay [3] addresses HLA-B*51:01.
The target of assay [4] is HLA-B*58:01.
Assay [5] concerns the target HLA-B*39:01.
The target of assay [6] is HLA-A*02:03.
Assay [7] addresses HLA-A*02:01.
Assay [8] concerns the target HLA-B*18:01.

pKd: −log10 of the molar value. Some results are limits rather than exact numbers.

Turning to EVRKAIEFV, the negative-log Kd (pKd) in assay [1] was not above 4.70; in assay [2], not above 5.30; in assay [3], not above 4.70; in assay [4], not above 5.30; in assay [5] it was not above 4.70; in assay [6] it was not above 4.70. Besides, the pKd in assay [7] and in assay [8] was not above 4.70 each time.

By pKd is commonly meant the negative decadic logarithm of the Kd, by convention in mol/L. The low end stands for a high Kd, the high end for a low Kd.
